Target: putative cross-reactive peptide arising from SH2D3A, on HLA-A*02:01 of T2 cells (human)
Assay: cell-based or functional assay

B1: TCR2 (TCR, V domains shown)
V domain 1: EDQVTQSPEALRLQEGESSSLNCSYTVSGLRGLFWYRQDPGKGPEFLFTLYSAGEEKEKERLKATLTKKESFLHITAPKPEDSATYLCAVQAWGGGSQGNLIFGKGTKLSVKP
V domain 2: DSGVTQTPKHLITATGQRVTLRCSPRSGDLSVYWYQQSLDQGLQFLIQYYNGEERAKGNILERFSAQQFPDLHSELNLSSLELGDSALYFCASSAGDRGYEQYFGPGTRLTVTE
- EC50 in T2/peptide TDCC assay, against the DCAF4L2 target peptide: 87 fold

— patent US20250009799A1 (Amgen, published 2025)
